Laboratory results published in article PMC7089611 (Febs Letters, 2012).
Several values for one entry are separate records, joined by “and”; a condition that tells them apart may be missing. Identical values can stand only once. Like-named read-outs stand apart in the source and are kept apart here.

B1: HCoV‐229E nucleocapsid (N) protein C‐terminal domain truncation N245–350 (domain or fragment)
chain: QKPRWKRQPNDDVTSNVTQCFGPRDLDHNFGSAGVVANGVKAKGYPQFAELVPSTAAMLFDSHIVSKESGNTVVLTFTTRVTVPKDHPHLGKFLEELNAFTREMQQ
B2: HCoV‐229E nucleocapsid (N) protein C‐terminal domain truncation N245–376 (domain or fragment)
chain: QKPRWKRQPNDDVTSNVTQCFGPRDLDHNFGSAGVVANGVKAKGYPQFAELVPSTAAMLFDSHIVSKESGNTVVLTFTTRVTVPKDHPHLGKFLEELNAFTREMQQHPLLNPSALEFNPSQTSPATAEPVRD
B3: HCoV‐229E nucleocapsid (N) protein C‐terminal domain truncation N245–382 (domain or fragment)
chain: QKPRWKRQPNDDVTSNVTQCFGPRDLDHNFGSAGVVANGVKAKGYPQFAELVPSTAAMLFDSHIVSKESGNTVVLTFTTRVTVPKDHPHLGKFLEELNAFTREMQQHPLLNPSALEFNPSQTSPATAEPVRDEVSIET
B4: HCoV‐229E nucleocapsid (N) protein C‐terminal domain N245–389 (domain or fragment)
chain: QKPRWKRQPNDDVTSNVTQCFGPRDLDHNFGSAGVVANGVKAKGYPQFAELVPSTAAMLFDSHIVSKESGNTVVLTFTTRVTVPKDHPHLGKFLEELNAFTREMQQHPLLNPSALEFNPSQTSPATAEPVRDEVSIETDIIDEVN
B5: HCoV‐229E nucleocapsid (N) protein C‐terminal domain truncation N245–370 (domain or fragment)
chain: QKPRWKRQPNDDVTSNVTQCFGPRDLDHNFGSAGVVANGVKAKGYPQFAELVPSTAAMLFDSHIVSKESGNTVVLTFTTRVTVPKDHPHLGKFLEELNAFTREMQQHPLLNPSALEFNPSQTSPAT
B6: N245–350: truncated C‐terminal domain of the HCoV‐229E N protein, dimeric C‐terminal structural domain (protein)
chain: B1 chain
modifications: left off: His6, C-terminal, state not stated

Columns and labels:
AUC [1] = target: the molecule itself; test: AUC
AUC [2] = target: the molecule itself; test: AUC; remark: listed apart in the source
AUC [3] = target: the molecule itself; test: AUC; remark: listed apart in the source
[4] = Secondary structural content by CD spectroscopy; type: physicochemical; details: 25 °C, protein 5 μM, 50 mM Tris–HCl pH 7.5, 150 mM NaCl, 0.1% β‐mercaptoethanol, CDSSTR
[5] = type: physicochemical; details: CD at 220 nm, protein 7 μM, 50 mM Tris–HCl pH 7.5, 150 mM NaCl, 0.1% β‐mercaptoethanol

| Molecule | Kd (AUC [1]) [µM] | stoichiometry N (AUC [1]) | other results |
| --- | --- | --- | --- |
| B1 | 256 | 2 and 4 |  |
| B2 | 159 | 4 and 2 |  |
| B3 | 3.83 |  |  |
| B4 | 3.5 |  | Kd (AUC [2]): ~9.7 µM; Kd (AUC [3]): ~6.1 µM |
| B5 | 177 | 2 and 4 |  |
| B6 |  |  | Disordered (random coil) content [4]: ~15%; Sheet content [4]: ~22%; Turn content [4]: ~12%; melting temperature (Tm) [5]: 35.5 °C |
